Data taken from patent publication US12098176B2, “Keratin BD-4, preparation method, and pharmaceutical composition and use thereof” (Institute of Materia Medica, Chinese Academy of Medical …, priority 2019, dated 2024).

How the values were obtained:
[1] = tested on: mice cough induced by ammonia water; test: Antitussive test, cough induced by ammonia water in mice; type: in vivo, mouse; details: for Incubation period: cough latency; for Incubation period / Number of coughs: X ± SEM; for Number of coughs: within 2 minutes
Protocol: Experimental example 6 The effect of protein BD-4 (Example 4 protein) on the antitussive effect of the cough induced by ammonia water in mice. Animals: male ICR mice; Drugs and reagents: dextromethorphan hydrobromide, ammonia, 0.2% CMC-Na, protein BD-4; Apparatus: Compressed nebulizer (403T type), balance (XS105DU type). Experiment Grouping: • Solvent control group; • Dextromethorphan 15 mg/kg group; • Protein BD-4, 20 mg/kg group, 50 mg/kg group. Method: Model Preparation and Administration:
Dextromethorphan and different doses of protein BD-4 (administration volume 10 ml/kg) were given orally in groups, and the solvent control group was given the same volume of distilled water. One hour later, it was put into a sealed box and atomized 10% ammonia water for 10 seconds, and then observed and recorded the incubation period of cough in mice and the number of coughs in 2 minutes.
Record the time point of oral administration, the time point of atomization experiment, the incubation period of mice cough and the number of coughs within 2 minutes, respectively. The incubation period of cough refers to the number of seconds from the start of the atomization of ammonia to the occurrence of cough. The performance of coughing in mice is based on contraction of their abdominal muscles (breast contraction) and opening their mouths at the same time. Calculate the mean and standard error of each group of data, use TTEST to compare the model group with other groups, and P<0.05 is considered as a significant difference.

[2] = tested on: lipopolysaccharide (LPS) induced fever in rats; test: Lipopolysaccharide (LPS) induced fever in SD rats; type: in vivo, rat; details: for Body temperature 2 hours after modeling: 2 h after LPS 20 μg/kg i.p.; for Body temperature 4 hours after modeling: 4 h after LPS 20 μg/kg i.p.; for Body temperature 6 hours after modeling: 6 h after LPS 20 μg/kg i.p.; for Body temperature 8 hours after modeling: 8 h after LPS 20 μg/kg i.p.
Protocol: Experimental example 2 The pharmacodynamic test of protein BD-4 (Example 4 protein) on lipopolysaccharide (LPS) induced fever in SD rats.
Experiment Grouping: • Model group: lipopolysaccharide fever model; • Positive control group: Aspirin 300 mg/kg group, • Protein BD-4, 10 mg/kg group, 50 mg/kg group. Method: the method of intraperitoneal injection of Lipopolysaccharide to create fever model in rats.
Preparation of experimental animals: After the experimental animals adapt to the experimental environment (temperature 22° C.±2° C., relative humidity 50%±2%) for 1 day. Pre-adaptation to measure rectal temperature at 8:00 and 15:00, Rats were fasted and water was taken freely 12 h before experiment. before the experiment, let the animal to empty its feces before measuring the rectal temperature. Apply petroleum jelly to the electronic thermometer probe before each temperature measurement. Insert the rat rectum 2 cm (can be marked at 2 cm to ensure that the depth of each insertion is consistent), and record the body temperature after the reading is stable.
Intraperitoneal injection of lipopolysaccharide to replicate rat fever model: The body temperature of the rats was measured before modeling. Qualified rats with a body temperature of 36.2-37.3° C. were selected and randomly divided into groups with 8 rats in each group. After oral administration of aspirin and different doses of protein BD-4, lipopolysaccharide (20 μg/kg, 2 ml/kg) was injected intraperitoneally immediately, and the normal control group was injected intraperitoneally with an equal volume of normal saline. the rats' body temperature was monitored after 2 hours for a total of 8 hours.
According to the body temperature measured at each time point on the day of the experiment, calculate the mean, standard deviation and standard error of the body temperature of each group of rats. The data of each group was compared with TTEST, and P<0.05 was considered as a significant difference.

[3] = tested on: PLO-induced epilepsy in mice; test: Pilocarpine (PLO) induced convulsive epilepsy in mice; type: in vivo, mouse; details: for Grade IV seizure rate / mortality rate: 10 mice; for Grade IV seizure rate / mortality rate / Number of deaths / Number of Grade IV cases: PLO 225 mg/kg i.p.; for Number of deaths / Number of Grade IV cases: of 10 mice; for Number of Grade IV cases: 30 min observation; for Level II onset incubation period / Level III onset incubation period / Level IV onset incubation period: mean ± SEM; for Level IV onset incubation period: no grade IV attack recorded as 1800 s
Protocol: Experimental example 3 The pharmacodynamic test of protein BD-4 (Example 4 protein) on convulsive epilepsy in mice caused by the convulsion agent Pilocarpine (PLO)
Model group: • Diazepam (Diazepam) 2 mg/kg group; • Protein BD-4, 50 mg/kg group, 200 mg/kg group. Method: Model Preparation and Administration:
The drug was administered once in the afternoon the day before modeling, PLO-225 mg/kg (modeling agent) was injected intraperitoneally 1 hour after the test drug was given to the stomach on the day of modeling. And positive drug can be administered once 20 minutes before modeling. Observe for 30 minutes after PLO injection.
Observation indicators: 1) Seizure situation: the time of seizures from grade II to grade IV; 2) the time to death.
Attack level: Refer to Racine grading standard: Level 0: No response; Grade I: manifested as twitching of facial muscles or the corners of the mouth; Level II: can nod; Level III: Twitching of one limb; Grade IV: rigidity or body twitching; Grade V: generalized epilepsy (generalized tonic seizures).
Count the number of grade IV seizures and deaths in each group of mice in the experiment; Level II, III and IV incubation period. […] Chi-square test was used for statistics of the number of cases. The mean value and standard error of the incubation period were calculated, and TTEST was used to compare the model group with other groups. P<0.05 was considered as a significant difference.

B1: BD-4: recombinant keratin, amino acid sequence SEQ ID NO: 1, expressed in E. coli; the protein of Example 4 was tested (protein, listed as Bos taurus)
chain: MSYSCCLPNLSFRSSCSSRPCVPSSCCGTTLPGACNIPANVGSCNWFCEGSFNGSEKETMQFLNDRLASYLEKVRQLERDNAELESRILERSQQQEPLVCPNYQSYFRTIEELQQKILCSKSENARLVVQIDNAKLASDDFRTKYETEVSLRQLVEADLNGLRRILDELTLCKSDLEARVESLKEELICLKQNHEQEVNTLRSQLGDRLNVEVDAAPTVDLNRVLNETRAQYEALVETNRRDVEEWYIRQTEELNKQVVSSSEQLQSYQAEIIELRRTVNALEVELQAQHNLRDSLENTLTETEARYSCQLAQVQGLIGNVESQLAEIRSDLERQNQEYQVLLDVRARLECEINTYRGLLDSEDCKLPCNPCATTNACERPCISNPCVSRARCGPCNTFVH
- Incubation period ([1]; 20 mg/kg oral): 34.0 ± 2.4 s
- Number of coughs ([1]; 20 mg/kg oral): 55.9 ± 3.5
- Cough incubation period vs solvent control group ([1]; 20 mg/kg, P<0.05): significant improvement
- Number of coughs vs solvent control group ([1]; 20 mg/kg, P<0.05): significant improvement
- Incubation period ([1]; 50 mg/kg oral): 33.2 ± 3.9 s
- Number of coughs ([1]; 50 mg/kg oral): 62.1 ± 3.7
- Number of coughs vs solvent control group ([1]; 50 mg/kg, P<0.05): significant improvement
- Effect on body temperature of model rats ([2]; 10 mg/kg and 50 mg/kg, after modeling): tendency to lower the body temperature of model rats after modeling, but it is not statistically significant
- Body temperature 2 hours after modeling ([2]; 10 mg/kg oral): 37.7 ± 0.1 °C
- Body temperature 4 hours after modeling ([2]; 10 mg/kg oral): 37.8 ± 0.l
- Body temperature 6 hours after modeling ([2]; 10 mg/kg oral): 37.8 ± 0.2 °C
- Body temperature 8 hours after modeling ([2]; 10 mg/kg oral): 37.5 ± 0.2 °C
- Body temperature 2 hours after modeling ([2]; 50 mg/kg oral): 37.6 ± 0.2 °C
- Body temperature 4 hours after modeling ([2]; 50 mg/kg oral): 37.7 ± 0.2 °C
- Body temperature 6 hours after modeling ([2]; 50 mg/kg oral): 37.6 ± 0.2 °C
- Body temperature 8 hours after modeling ([2]; 50 mg/kg oral): 37.5 ± 0.1 °C
- Epilepsy grade II incubation period, comparison with model group ([3]; 50 mg/kg): statistically different from the model group
- Epilepsy grade III incubation period, comparison with model group ([3]; 50 mg/kg): statistically different from the model group
- Grade IV seizure rate ([3]; 50 mg/kg gavage): 70%
- mortality rate ([3]; 50 mg/kg gavage): 0
- Number of deaths ([3]; 50 mg/kg gavage): 0
- Number of Grade IV cases ([3]; 50 mg/kg gavage): 7
- Level II onset incubation period ([3]; 50 mg/kg): 95 ± 3 s
- Level III onset incubation period ([3]; 50 mg/kg): 162 ± 5 s
- Level IV onset incubation period ([3]; 50 mg/kg): 974 ± 192 s
- Epilepsy grade III incubation period, comparison with model group ([3]; 200 mg/kg): statistically different from the model group
- Grade IV seizure rate ([3]; 200 mg/kg gavage): 90%
- mortality rate ([3]; 200 mg/kg gavage): 10%
- Number of deaths ([3]; 200 mg/kg gavage): 1
- Number of Grade IV cases ([3]; 200 mg/kg gavage): 9
- Level II onset incubation period ([3]; 200 mg/kg): 95 ± 6 s
- Level III onset incubation period ([3]; 200 mg/kg): 184 ± 17 s
- Level IV onset incubation period ([3]; 200 mg/kg): 765 ± 135 s
